The record followed here is patent US20130158103A1.

The test deals with TGFβ1 (PeproTech Inc, Rocky Hill, N.J.). Kind of test: cell-based or functional assay.

For the substance “human decorin (Accession #NM-001920), expressed in human corneal fibroblasts (HSF) from pcDNA3.1-decorin (from UniProt P07585 31-359)”, the SMA RNA level (real-time PCR), decorin-transfected vs un-transfected HSF with TGFβ1 1 ng/ml is > 6 fold; the SMA protein level (western blot), decorin-transfected vs un-transfected HSF with TGFβ1 was 83%; the SMA-stained cells (immunocytochemistry), decorin-transfected vs un-transfected HSF with TGFβ1 was found to be 79%; the collagen type I RNA level (real-time PCR), decorin-transfected vs naked-vector transfected HSF with TGFβ1 1 ng/ml was determined as 1 fold. The same substance yielded a collagen type III RNA level (real-time PCR), decorin-transfected vs naked-vector transfected HSF with TGFβ1 1 ng/ml of 0.9 fold; a collagen type IV RNA level (real-time PCR), decorin-transfected vs naked-vector transfected HSF with TGFβ1 1 ng/ml of 3.2 fold; a fibronectin RNA level (real-time PCR), decorin-transfected vs naked-vector transfected HSF with TGFβ1 1 ng/ml of 3.1 fold.
